“Also recorded” adds a separate entry of the source. Where two headings read alike, the source gives them in different places.
Legend:
HBV = experiment: supernatant HBV DNA in HepAD38 cells; assay type: cell-based; conditions: 6-day time course
Excerpt: Having regard to FIG. 12, TDF targets the HBV reverse transcriptase, thus only affecting the number virions secreted in the supernatant. In contrast, the presently designed polypeptides should affect cccDNA stability, which can be indirectly measured through levels. As expected, a significant decrease in supernatant HBV (2 log) was caused by TDF treatment. A significant, albeit lower, decrease in HBV supernatant DNA was also observed from sdAb10-2 treatment (0.5 log).

HBeAg = conditions: HepAD38 cells, 6-day time course
Description: In this Example 3, the effects of the presently designed polypeptides on HBV replication were analyzed, HepAD38 cells that expresses HBV under the control of a tetracycline promoter were used. HepAD38 cells were plated in the presence of TDF or candidate therapeutic (sdAb10-2) without tetracycline for three days to induce HBV production and to establish a cccDNA reservoir in the nuclei of infected cells. After three days, drugs/sdAbs were replenished and the media was replenished with tetracycline to suppress HBV transcripts being produced from the plasmid, so that only HBV markers be produced from the established cccDNA reservoir. Varying drug concentrations of—TDF and sdAb10-2 were used to determine drug toxicity (TD50) and efficacy during the 6-day time course.
The ability of the presently designed polypeptides to reduce HBeAg levels was also analyzed.

[1] = tested on: wild-type G-quadruplex of HBV cccDNA pre-core promoter region; experiment: phage ELISA assay (absorbance at 450 nm), wild-type vs mutant G-quadruplex; assay type: binding; conditions: for affinity for wild-type G-quadruplex structure of HBV cccDNA compared to mutant G-quadruplex structure: phage ELISA, WT vs MUT (G1748A)
Excerpt: According to embodiments, methods of developing and designing the present at least one novel polypeptide comprising at least one antiviral sdAb are provided. In some embodiments, the methods comprise accessing a fully synthetic phage-display library that codes for 3-billion sdAbs clones, enabling efficient selection of in vitro humanized antibodies against virtually any antigen. Advantageously, no animals or immunization are required, allowing the selection of sdAbs that can target unprocessed G-quadruplex, thereby overcoming conventional techniques of injecting animals to raise antibodies (such techniques known to alter antigen structures).
Having regard to FIG. 4B and Table 1 herein, the at least nine polypeptides having at least one sdAb are referred to as sdAbs 1, 4, 5, 6, 7, 8, 9, 10, and 11 and comprise an amino acid sequence represented as SEQ ID NOs: 9, 10, 11, 12, 13, 14, 15, 16, and 17, respectively.

NTCP-HUH7 cells = experiment: localization and entry into target cells (staining, microscopy); assay type: cell-based
Excerpt: The foregoing one or more modifications of the at least one polypeptide sdAb10 result in antiviral efficacy. […] Alternatively, the second and third rows shown in FIG. 7 provide that both polypeptides modified to include a cell penetrating peptide coding sequence entered the target cells (i.e. the nuclei and cytoplasm being visualized Hoescht stain and by fluorescently labelled anti-vinculin antibodies, respectively).

HBV cccDNA = experiment: pulldown assay with Hirt-extracted cccDNA from explanted HBV infected liver; assay type: binding; conditions: for interaction with cccDNA: pulldown, cccDNA from explanted HBV infected liver; for replicates that picked up cccDNA: three replicates, nested PCR detection
Description: In this Example 1, binding studies for at least one of the presently designed polypeptides having at least one sdAb with HBV pre-core G-quadruplex were performed using patient derived samples. For example, two of the presently developed sdAbs, namely sdAb #8 (NB01) and sdAb #1 (NB07), were produced via E. coli expression system and purified via nickel bead affinity chromatography, then size exclusion chromatography (as described in more detail herein). Pulldown assays using Hirt-extracted cccDNA from explanted liver tissue (i.e. liver transplanted secondary to HCC from HBV) were performed.
Having regard to FIG. 8B, results are provided from the pulldown study using sdAbs-bound to magnetic nickel beads with Hirt-extracted, T5 exonuclease-digested cccDNA from an explanted HBV infected liver. Beads were incubated with the corresponding sdAbs comprising, in this Example, the presently developed sdAb8 and sdAb1, washed, and incubated with cccDNA. Excess cccDNA was removed (“xsDNA” lanes), followed by 4 washing steps (“4th Wash” lanes). The sdAbs were eluted and cccDNA was detected through nested PCR (“Elution” lanes). The first lane is the DNA marker highlighting the 150 bp fragment and the next two lanes represent the “sdAb only” elutions (sdAb8 and sdAb1). Subsequent sets of 3 represent the excess cccDNA (“xs”), last washes (“W”) and elutions (“E”) from the corresponding tubes. The last three lanes represent the PCR controls, with negatives from the direct (D) and nested (N) rounds.

[2] = tested on: HBV pre-core G-quadruplex; experiment: MST binding study with HBV pre-core G-quadruplex
Description: In this Example, binding studies for at least one of the presently designed polypeptides having at least one sdAb (e.g. sdAb10M and sdAb1) with HBV pre-core G-quadruplex were performed.

[3] = tested on: HBV surface antigen (HBsAg); experiment: HBsAg levels following exposure to the polypeptide; conditions: increased concentration from 50 μg/mL to 100 μg/mL
Description: Having regard to FIG. 5A, expression methods using a bacterial expression system (SDS-PAGE) yielded ˜3 mg of pure sdAbs from 1 L bacterial culture, where lane 1 represents the standard molecular weight marker and elution fractions are shown in lanes 2-6, indicating the presence of at least one polypeptides having at least one sdAb (between 18.4 kDa and 14.4 kDa markers). […] The foregoing confirms that the at least one polypeptide comprise at least one antiviral sdAb.

CC(C)OC(=O)OCOP(=O)(CO[C@H](C)Cn1cnc2c(N)ncnc21)OCOC(=O)OC(C)C.O=C(O)/C=C/C(=O)O [TDF, Tenofovir Disoproxil Fumurate, reference compound]
decrease in supernatant HBV DNA (HBV): 2 log | HBeAg levels (HBeAg): did not significantly decrease

B1: sdAb 4: single domain antibody, amino acid sequence SEQ ID NO: 10 (protein)
VHH: MAEVQLQASGGGFVZPGGSLRLSCAASGRTSKWYSMGWFRQAPGKEREFVSAISYRQNIRAYYADSVKGRFTISRDNSKNTVYLQMNSLRAEDTATYYCAATHSYLFKFPTHFPQPQDYWGQGTQVTVSS
modifications: Single-Domain Antibody 4
affinity for wild-type G-quadruplex structure of HBV cccDNA compared to mutant G-quadruplex structure [1]: higher affinity for the wild-type G-quadruplex structure

B2: sdAb10-2: sdAb10 modified with CPP, NTCP-recognition and NLS sequences; full sequence SEQ ID NO: 20 (protein)
VHH: MAEVQLQASGGGFVQPGGSLRLSCAASGRTSKITSMGWFRQAPGKEREFVSAISWSNGLTNYYADSVKGRFTISRDNSKNTVYLQMNSLRAEDTATYYCASKIHTKPKWYWGQGTQVTVSSGGGGSGRKKRRQRRRPPQGGGGSNPLGFFPGGGGSDHQLDGGGGSPKKKRKVSSFLRNHHHHHH
modifications: Single-Domain Antibody 10-02
decrease in supernatant HBV DNA (HBV): 0.5 log | entry into target cells (NTCP-HUH7 cells): enter the cell; also recorded: localize and enter the target hepatocyte cells | HBeAg levels (HBeAg): significantly decreased

B3: sdAb8: single domain antibody, amino acid sequence SEQ ID NO: 14 (protein)
VHH: MAEVQLQASGGGFVQPGGSLRLSCAASGTTSGQTAMGWFRQAPGKEREFVSAISGHHTPRAYYADSVKGRFTISRDNSKNTVYLQMNSLRAEDTATYYCAWIRRKPQSWYWGQGTQVTVSS
modifications: Single-Domain Antibody 8
affinity for wild-type G-quadruplex structure of HBV cccDNA compared to mutant G-quadruplex structure [1]: higher affinity for the wild-type G-quadruplex structure | interaction with cccDNA (HBV cccDNA): interacts with HBV cccDNA | replicates that picked up cccDNA (HBV cccDNA): two of the three replicates | entry into target cells (NTCP-HUH7 cells; listed as sdAb08): do not enter the cells; also recorded: failed to enter target cells

B4: sdAb 11: single domain antibody, amino acid sequence SEQ ID NO: 17 (protein)
VHH: MAEVQLQASGGGFVQPGGSLRLSCAASGFTSESTSMGWFRQAPGKEREFVSAISRWESTEEYYADSVKGRFTISRDNSKNTVYLQMNSLRAEDTATYYCAYRMHWGGRWRWNYWGQGTQVTVSS
modifications: Single-Domain Antibody 11
affinity for wild-type G-quadruplex structure of HBV cccDNA compared to mutant G-quadruplex structure [1]: higher affinity for the wild-type G-quadruplex structure

B5: sdAb 6: single domain antibody, amino acid sequence SEQ ID NO: 12 (protein)
VHH: MAEVQLQASGGGFVQPGGSLRLSCAASGTGFRHTAMGWFRQAPGKEREFVSAISGHASKQAYYADSVKGRFTISRDNSKNTVYLQMNSLRAEDTATYYCAFRRAEKIYGHPMAPQKLWYWGQGTQVTVSS
modifications: Single-Domain Antibody 6
affinity for wild-type G-quadruplex structure of HBV cccDNA compared to mutant G-quadruplex structure [1]: higher affinity for the wild-type G-quadruplex structure

B6: sdAb1: single domain antibody, amino acid sequence SEQ ID NO: 9; used as negative control (poor binder) (protein)
VHH: MAEVQLQASGGGFVQPGGSLRLSCAASGRTYRHSGMGWFRQAPGKEREFVSAISDDHNMESYYADSVKGRFTISRDNSKNTVYLQMNSLRAEDTATYYCAMTKWHGPGGPHWYWGQGTQVTVSS
modifications: Single-Domain Antibody 1
interaction with pre-core G-quadruplex of cccDNA ([1]; FIG. 4): only weakly interacted with the G-quadruplex | affinity for wild-type G-quadruplex structure of HBV cccDNA compared to mutant G-quadruplex structure [1]: higher affinity for the wild-type G-quadruplex structure | interaction with cccDNA (HBV cccDNA): did not interact with cccDNA | replicates that picked up cccDNA (HBV cccDNA): none of the replicates | interaction with HBV pre-core G-quadruplex [2]: did not interact with HBV pre-core G-quadruplex

B7: sdAb10-1: sdAb10 modified with CPP, NTCP-recognition and NLS sequences; full sequence SEQ ID NO: 19 (protein)
VHH: GRKKRRQRRRPPQGGGGSMAEVQLQASGGGFVQPGGSLRLSCAASGRTSKITSMGWFRQAPGKEREFVSAISWSNGLTNYYADSVKGRFTISRDNSKNTVYLQMNSLRAEDTATYYCASKIHTKPKWYWGQGTQVTVSSGGGGSNPLGFFPGGGGSDHQLDGGGGSPKKKRKVSSFLRNHHHHHH
modifications: Single-Domain Antibody 10-01
entry into target cells (NTCP-HUH7 cells): enter the cell; also recorded: localize and enter the target hepatocyte cells

B8: sdAb10: single domain antibody, amino acid sequence SEQ ID NO: 16 (protein)
VHH: MAEVQLQASGGGFVQPGGSLRLSCAASGRTSKITSMGWFRQAPGKEREFVSAISWSNGLTNYYADSVKGRFTISRDNSKNTVYLQMNSLRAEDTATYYCASKIHTKPKWYWGQGTQVTVSS
modifications: Single-Domain Antibody 10
affinity for wild-type G-quadruplex structure of HBV cccDNA compared to mutant G-quadruplex structure [1]: higher affinity for the wild-type G-quadruplex structure | HBsAg levels [3]: dose-dependent decrease in HBsAg levels

B9: sdAb 7: single domain antibody, amino acid sequence SEQ ID NO: 13 (protein)
VHH: MAEVQLQASGGGFVQPGGSLRLSCAASGRTYRGETMGWFRQAPGKEREFVSAISWGWSNRAYYADSVKGRFTISRDNSKNTVYLQMNSLRAEDTATYYCASRHMRRAPWSGPGMSYWGQGTQVTVSS
modifications: Single-Domain Antibody 7
affinity for wild-type G-quadruplex structure of HBV cccDNA compared to mutant G-quadruplex structure [1]: higher affinity for the wild-type G-quadruplex structure

B10: sdAb 9: single domain antibody, amino acid sequence SEQ ID NO: 15 (protein)
VHH: MAEVQLQASGGGFVQPGGSLRLSCAASGRTSGHYSMGWFRQAPGKEREFVSAISGRGNSLSYYADSVKGRFTISRDNSKNTVYLQMNSLRAEDTATYYCAWWHRDSHPQSGKHMRYWGQGTQVTVSS
modifications: Single-Domain Antibody 9
affinity for wild-type G-quadruplex structure of HBV cccDNA compared to mutant G-quadruplex structure [1]: higher affinity for the wild-type G-quadruplex structure

B11: sdAb 5: single domain antibody, amino acid sequence SEQ ID NO: 11 (protein)
VHH: MAEVQLQASGGGFVZPGGSLRLSCAASGRTSYHTNMGWFRQAPGKEREFVSAISSSPNAATYYADSVKGRFTISRDNSKNTVYLQMNSLRAEDTATYYCARTKYGRVMGHMWYWGQGTQVTVSS
modifications: Single-Domain Antibody 5
affinity for wild-type G-quadruplex structure of HBV cccDNA compared to mutant G-quadruplex structure [1]: higher affinity for the wild-type G-quadruplex structure

Source: US12350286B2, “Polypeptides directed against viral infection and uses thereof” (QUADRUMIX BIOTECHNOLOGY INC., priority 2020, dated 2025)
